Experimental data as given in US20180022779.

B1: human CytB5R3 (endogenous, vascular cell co-culture and human coronary ECs) (protein)
chain: GAQLSTLGHMVLFPVWFLYSLLMKLFQRSTPAITLESPDIKYPLRLIDREIISHDTRRFRFALPSPQHILGLPVGQHIYLSARIDGNLVVRPYTPISSDDDKGFVDLVIKVYFKDTHPKFPAGGKMSQYLESMQIGDTIEFRGPSGLLVYQGKGKFAIRPDKKSNPIIRTVKSVGMIAGGTGITPMLQVIRAIMKDPDDHTVCHLLFANQTEKDILLRPELEELRNKHSARFKLWYTLDRAPEAWDYGQGFVNEEMIRDHLPPPEEEPLVLMCGPPPMIQYACLPNLDHVGHPTERCFVF
B2: FLAG-tagged CytB5R3 (Origene) (protein)
chain: GAQLSTLGHMVLFPVWFLYSLLMKLFQRSTPAITLESPDIKYPLRLIDREIISHDTRRFRFALPSPQHILGLPVGQHIYLSARIDGNLVVRPYTPISSDDDKGFVDLVIKVYFKDTHPKFPAGGKMSQYLESMQIGDTIEFRGPSGLLVYQGKGKFAIRPDKKSNPIIRTVKSVGMIAGGTGITPMLQVIRAIMKDPDDHTVCHLLFANQTEKDILLRPELEELRNKHSARFKLWYTLDRAPEAWDYGQGFVNEEMIRDHLPPPEEEPLVLMCGPPPMIQYACLPNLDHVGHPTERCFVF

Target: purified Hb α chains (isolated from lyophilized hemoglobin, Sigma), P69905
Sequence (P69905 2-142): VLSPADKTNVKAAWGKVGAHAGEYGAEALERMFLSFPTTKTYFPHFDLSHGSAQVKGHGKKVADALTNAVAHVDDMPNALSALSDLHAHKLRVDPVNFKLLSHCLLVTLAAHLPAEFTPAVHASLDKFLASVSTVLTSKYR

Protein | met-Hb α reduction, time lapse UV-visible spectrometry of EC lysates mixed with purified Hb α chains and NADH | met-Hb α reduction, time lapse UV-visible spectrometry of lysates of ECs transfected with CytB5R3-Flag, mixed with purified Hb α chains and NADH
B1 | loss of CytB5R3 inhibited metHb α reduction | –
B2 | – | overexpression enhanced metHb α reduction
